Each block holds one binder with its values, some of them ahead of it.
What was measured:
[1] = molecular target: T1, DLL4 antigen protein (recombinant fragment of the extracellular domain of human DLL4, amino acids 1-522, Fc- … (human, UniProt Q9NR61 27-522)); experiment: Biacore; antibody purified by protein A; DLL4 form and format not stated
T1 construct: also called Human DLL4 Antigen; not shown: human Fc-tag or histidine-tag

[2] = molecular target: T1, DLL4 antigen protein (recombinant …); experiment: ELISA of conditioned medium, HEK 293 cells cotransfected with the murine 21M18 light chain
Description: The functionality of each candidate variant humanized heavy and light chain was tested by cotransfection into mammalian cells.

[3] = molecular target: T1, DLL4 antigen protein (recombinant …); experiment: ELISA of conditioned medium, HEK293 cells
From the text: These heavy chains were cotransfected into HEK293 cells with L2, and conditioned media was again assayed.

[4] = molecular target: T2, human DLL4 aa 1-217 fused to Fc (human, UniProt Q9NR61 27-217); experiment: ELISA, Fc fusion captured by anti-human Fc
T2 construct: predicted signal peptide 1-26 left out; also called hDLL4dom1-3; not shown: Fc protein
Description: (§1) To identify antibodies that recognize specific regions of the DLL4 extracellular domain, epitope mapping was performed. Mammalian expression plasmid vectors comprising a CMV promoter upstream of polynucleotides that encode a nested series of deletion fragments of the extracellular domain of DLL4 fused to Fc protein were generated using standard recombinant DNA technology. Additional constructs that encoded fragments of DLL4 that were chimera of human and mouse DLL4 fused to Fc protein were also generated using standard recombinant DNA technology. A further series of DLL4-fc fusion proteins were designed that included specific amino acid substitutions. These recombinant fusion proteins were expressed in transiently transfected HEK 293 cells from which conditioned medium was collected twenty-four to forty-eight hours post-transfection for ELISA. The DLL4 fusion protein fragments were captured on plates coated with anti-human Fc antibodies. Anti-DLL4 antibodies were then allowed to interact with the bound DLL4 fragments and binding was measured by subsequent incubation with HRP conjugated anti-mouse antibody and detection of HRP activity (FIG. 3A). […] Additionally, anti-DLL4 mAbs were examined for binding to DLL4 fusion protein fragments by western blot analysis (FIG. 3B).

[5] = molecular target: T3, human DLL4 aa 1-283 fused to Fc (human, UniProt Q9NR61 27-283); experiment: ELISA, Fc fusion captured by anti-human Fc
T3 construct: Predicted signal peptide 1-26 left out; not shown: Fc protein
Description: as §1

[6] = molecular target: T4, human DLL4 aa 1-154 fused to Fc (human, UniProt Q9NR61 27-154); experiment: ELISA, Fc fusion captured by anti-human Fc
T4 construct: predicted signal peptide 1-26 left out; also called h-DLL4 dom1-2; not shown: Fc protein
Description: as §1

[7] = molecular target: T5, human DLL4 aa 1-96 fused to Fc (human, UniProt Q9NR61 27-96); experiment: ELISA, Fc fusion captured by anti-human Fc
T5 construct: Printed as aa 1-96; not shown: Fc protein (human Fc by the capture and detection reagents)
Description: as §1

[8] = molecular target: T6, human DLL4 aa 1-323 fused to Fc (human, UniProt Q9NR61 27-323); experiment: ELISA, Fc fusion captured by anti-human Fc
T6 construct: Predicted signal peptide 1-26 left out; also called aa 1-323 (printed as 1-323); not shown: Fc protein
Description: as §1

[9] = molecular target: T7, human DLL4 aa 1-251 fused to Fc (human, UniProt Q9NR61 27-251); experiment: ELISA, Fc fusion captured by anti-human Fc
T7 construct: Predicted signal peptide 1-26 left out; also called aa 1-251 (printed as 1-251); not shown: Fc protein
Description: as §1

[10] = molecular target: T8, murine DLL4-Fc (murine, UniProt Q9JI71 27-525, limits assumed); experiment: FACS-based assay with human or murine DLL4-Fc (FIG. 2B)
T8 construct: also called m-DLL4; not shown: Fc
T8 sequence (Q9JI71 27-525 limits assumed): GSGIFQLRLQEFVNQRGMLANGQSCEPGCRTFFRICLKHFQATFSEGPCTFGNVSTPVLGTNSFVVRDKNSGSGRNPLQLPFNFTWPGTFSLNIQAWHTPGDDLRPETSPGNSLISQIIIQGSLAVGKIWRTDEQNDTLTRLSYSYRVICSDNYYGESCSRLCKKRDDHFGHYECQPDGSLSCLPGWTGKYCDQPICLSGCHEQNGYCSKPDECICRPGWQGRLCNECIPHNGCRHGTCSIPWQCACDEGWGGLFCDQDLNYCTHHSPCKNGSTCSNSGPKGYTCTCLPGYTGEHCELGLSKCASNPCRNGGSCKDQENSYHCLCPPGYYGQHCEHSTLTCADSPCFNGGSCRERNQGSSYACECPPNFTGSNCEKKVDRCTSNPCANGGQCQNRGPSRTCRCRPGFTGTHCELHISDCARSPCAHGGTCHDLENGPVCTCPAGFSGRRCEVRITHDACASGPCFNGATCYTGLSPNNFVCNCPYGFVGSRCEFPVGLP
From the text: Binding was detected by fluorescently labeled anti-Fc and analyzed by FACS, with high fluorescence intensity indicative of binding between DLL4 and Notch1 expressing cells.

[11] = molecular target: T9, human DLL4, full-length, on the surface of transfected cells (human, UniProt Q9NR61 27-685); experiment: FACS on HEK 293 cells co-transfected with full-length DLL4 and GFP
T9 construct: whole, on cells; HEK 293 cells (transient with GFP, or stably transduced) and 3T3 cells overexpressing human DLL4; also called native cell-surface DLL4 protein; Delta-like ligand 4

B1: humanized 21M18 variant H2L2 (antibody, V domains shown)
VH: QVQLVQSGAEVKKPGASVKISCKASGYSFTAYYIHWVKQAPGQGLEWIGYISCYNGATNYNQKFKGRVTFTTDTSTSTAYMELRSLRSDDTAVYYCARDYDYDVGMDYWGQGTLVTVSS
VL: DIVMTQSPDSLAVSLGERATISCRASESVDNYGISFMKWFQQKPGQPPKLLIYAASNQGSGVPDRFSGSGSGTDFTLTISSLQAEDVAVYYCQQSKEVPWTFGGGTKVEIK
notes: also called 21M18 H2L2; 21M18 H2 with 21M18 L2
Kd [1]: ~330 pM

B2: 21M18 H2 humanized heavy chain cotransfected with the murine 21M18 light chain (antibody, V domains shown)
VH: QVQLVQSGAEVKKPGASVKISCKASGYSFTAYYIHWVKQAPGQGLEWIGYISCYNGATNYNQKFKGRVTFTTDTSTSTAYMELRSLRSDDTAVYYCARDYDYDVGMDYWGQGTLVTVSS
VL: not shown
notes: Tested as conditioned medium of HEK 293 cells; heavy chain on human IgG2 constant region; also called 21M18 H2 (with murine 21M18 light chain)
binding result [2]: binds

B3: humanized 21M18 H9L2 (antibody, human IgG2, V domains shown)
VH: QVQLVQSGAEVKKPGASVKISCKASGYSFTAYYIHWVKQAPGQGLEWIGYISVYNGATNYNQKFKGRVTFTTDTSTSTAYMELRSLRSDDTAVYYCARDYDYDVGMDYWGQGTLVTVSS
VL: DIVMTQSPDSLAVSLGERATISCRASESVDNYGISFMKWFQQKPGQPPKLLIYAASNQGSGVPDRFSGSGSGTDFTLTISSLQAEDVAVYYCQQSKEVPWTFGGGTKVEIK
notes: Variant of H2 with Kabat 52a Cys changed to Val; also called ATCC PTA-8427
binding result [3]: binds

The remaining lines, values ahead:

binding result [3]: binds
B4: humanized 21M18 H7L2 (antibody, human IgG2, V domains shown)
VH: QVQLVQSGAEVKKPGASVKISCKASGYSFTAYYIHWVKQAPGQGLEWIGYISSYNGATNYNQKFKGRVTFTTDTSTSTAYMELRSLRSDDTAVYYCARDYDYDVGMDYWGQGTLVTVSS
VL: DIVMTQSPDSLAVSLGERATISCRASESVDNYGISFMKWFQQKPGQPPKLLIYAASNQGSGVPDRFSGSGSGTDFTLTISSLQAEDVAVYYCQQSKEVPWTFGGGTKVEIK
notes: Variant of H2 with Kabat 52a Cys changed to Ser; also called H7L2 21M18; ATCC PTA-8425

binding result [4]: binds
binding result [5]: binds
binding result [6]: no binding
binding result [7]: no binding
binding result [8]: binds
binding result [9]: binds
binding result [10]: no binding
binding result [11]: binds
B5: murine monoclonal antibody 21M18 (antibody, V domains shown)
VH: EVQLQQSGPELVKTGASVKISCKASGYSFTAYYIHWVKQSHGKSLEWIGYISCYNGATNYNQKFKGKATFTVDTSSSTAFMQFNSLTSEDSAVYYCARDYDYDVGMDYWGQGTSVTVSS
VL: not shown
notes: Hybridoma-derived mouse antibody; both are alignment entries; also called m21M18; anti-DLL4 21M18

— patent publication US20190060453A1 (ONCOMED PHARMACEUTICALS, published 2019)
